The values that follow come from article PMC3039672.

For this assay, the target named is partial heads (10am13am phage T4 heads that ejected most of their packaged DNA, keeping a ~8-kb piece) (bacteriophage T4) (UniProt P13334).
Chain of UniProt P13334 (P13334 whole entry, looked up): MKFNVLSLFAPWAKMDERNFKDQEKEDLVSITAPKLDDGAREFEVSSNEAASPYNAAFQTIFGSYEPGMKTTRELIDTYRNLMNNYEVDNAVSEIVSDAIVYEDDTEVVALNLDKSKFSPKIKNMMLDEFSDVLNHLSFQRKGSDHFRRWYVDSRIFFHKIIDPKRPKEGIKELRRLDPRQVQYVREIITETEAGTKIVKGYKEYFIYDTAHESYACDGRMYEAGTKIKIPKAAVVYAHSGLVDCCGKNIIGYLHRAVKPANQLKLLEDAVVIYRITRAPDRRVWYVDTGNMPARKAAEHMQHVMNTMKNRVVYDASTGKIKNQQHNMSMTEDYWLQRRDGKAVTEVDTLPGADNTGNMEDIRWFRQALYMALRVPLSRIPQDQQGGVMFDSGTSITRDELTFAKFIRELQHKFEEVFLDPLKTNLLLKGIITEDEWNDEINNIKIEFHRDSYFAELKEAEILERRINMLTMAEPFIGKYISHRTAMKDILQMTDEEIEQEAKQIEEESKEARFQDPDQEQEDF

“full-length gp17 (large terminase protein, packaging motor) (from UniProt P17312 1-610) (enzyme)” displayed a single molecule optical tweezers: packaging rate of 10-kb DNA against 5 pN by head-gp17 complexes of 1100 bp/s.
